Assay: soluble on expression in E. coli; label from the status in PepcDB or PDB records

Sequence | soluble on expression in E. coli
MGSDKIHHHHHHAKSEMAFAGKGEISPRAITMWDFSWLERRWPGAGYEDWDQVLDELSERGYNAIRIDAYPHLIAENPMKKWLLKEVWNQQDWGSPDMNEVQVQPNLNLFLSKCKERDIKVGLSSWYRLDVDEVCLKLDTPEKLADCWLTILRSIEEDGLLDTILYVDLCNEWPGDSWAPFFAKTYPNVGWGNWYKEESLRWMKTSLEKMRQVYPDMPFLYSFDHGDVKKYEEVDCSFLDLYEHHIWMAQQNGGEFYKLVGYGYNRFLPDDYKNVVKNAERVYRERPGYWQKLLTDKIELMASVARKNRRPLVTTECWGLVDYKDWPLLKWDWVKDLCELGTITAARTGMWVGVATSNFCGPQFAGMWRDVEWHKRLTSIIRSSPLDESLTKNNEVAAKLLKRL | not soluble
METDLLDADECSENEKTLESIEKVFSASHLLVKILEFSSAQHRQKLYIAGSRSRQGDLKGFLDLRLVNQQFNEGVCIAVRKEFKHIQIDIDDNFVRCNYFTIGLHHKPPEPGNRENANVEGEDGNPVEEDEEMPAHEDLPSEDTEDVRFLVKFLRWLAGTFDPIVENFKVFDSWSFKPCSLPPSWADRLTVFISMHPDMEYCNCEQCIRIARNCKESFGPLSFRMVEDALRDQNISYGALTFTDAFLADIAIAYTISIDNRDRFDANRFIRDFGGIRVDELTFAVQTLATYRDERPKPQPLEVLQLILRLWEAKTVEFEIVKFMENDYYLQRCAWERSGAFTLAHFATYSFQHFDEFVHVVPYKFSGTLDRDLRNEIMPIFDLRIDPSEGPLRMGSNLSLLSLASQNNENSTFTWINQGRIAFNMFRANHYMFITSGIVEFRGMLGTANWLKFTIRDMMRSTWGPRGSNVTERGKTVYWINFMEDVGDCIQIVWSEHAKELLETNFPNLVVTMNSSHAFRNCSNRRAATYNDSKRPDVQKKPINTFYCTFYDSVRNNTTHMKLIQIAN | not soluble
MGSDKIHHHHHHMNTHNILIIGQGDIGLPVTNKLAQNGVNVTGLARRKRQNYALSDHAKFMQADALTLSPEQLQDFTHIAIIVTPDEYSTSGYHNSYLAINQHLALLADKLSNLQRVVFISSTGVYGQDNGEWIDEDTVPMLPEREASQVILQAEQALQQVFHDRAIIIRPSGIYGRARLMRVRKAKEPQKQPIAAGAWTNRIMDSDLVNIIAKVLTIKAPKPIYIATDYLPVTSFALTTWLSEQLDEALPVLDDKNSVMTGKRLHSNIPLSWLMYPDWQIGYQDILRHQD | not soluble
EVQLVQSGAEVKKPGSSVKVSCKASGGTFSNYAINWVRQAPGQGLEWMGGIIPIFNIAHYAQRFQGRVSITADESTSTAYMELSSLRSEDTAVFYCASPYPNDYNDYAPEEGMSWYFDLWGRGTLVTVSPASTKGPSVFPLAPSSKSTSGGTAALGCLVKDYFPEPVTVSWNSGALTSGVHTFPAVLQSSGLYSLSSVVTVPSSSLGTQTYICNVNHKPSNTKVDKKVEPK | soluble
QADMPLERIIEAEKRVECNDPLVALVVNENNTTVNNICQATHKQLFQLVQWAKLVPHFTSLPLTDQVQLLRAGWNELLIAAFSHRSMQAQDAIVLATGLTVNKSTAHAVGVGNIYDRVPSELVNKMKEMKMDKTELGCLRAIILYNPDVRGIKSVQEVEMLREKIYGVLEEYTRTTHPNEPGRFAKLLLRLPALRSIGLKCLEHLFFFKLIGDVPIDTFLMEMLEGTTDS | soluble
MGSDKIHHHHHHMNIELADLRLFVMIAECGNLTHGAARAFLSPPAASARIKAMEQEIGQQLLVRKNKGVELTPSGDALLRHARLVLRQFDFLTDDMTNAQMGHLRIYANTTGVTEFLPAILARFLADHPGVRVDLQERLTQEIIRAVADGTADIGIISGTEGRDGLERLRFATDRLMLAVPSGHHLAHHDQVSLEQTLAFEHIALHDGSTLLDFLRRQLRRSAFDRQLRIQVRSFEAMCRLIEAGVGIGVVPESAALRHLQTMDITLLALADDWAVRDRSILVRRWADLPQSAQRLIDLLVEKEAGGAEV | not soluble
MTFAWGRGSHGGAGMRIVQITDTHFSPTKAHFNGNWAPLAAWIEQSGADLVIHTGDLSVDGADRDDDIAFCMDLMREISAPMLLVPGNHDVGHLPGSLQPVNAGRLERWRRLVGPDYWMEDAGSWRLIGLDSLLMGFDDAEEEAQFDWLRTVLESRGGRRVALFAHKPLFVDAPGEGDTGYWSVRPAQRQRLYDLIATHDVALFASGHLHRAWQGKYENTSLVWGPSAALEHHHHHH | soluble
FQGAMSSSIDISKINSWNKEFQSDLTHQLATTVLKNYNADDALLNKTRLQKQDNRVFNTVVSTDSTPVTNQKSSGRCWLFAATNQLRLNVLSELNLKEFELSQAYLFFYDKLEKANYFLDQIVSSADQDIDSRLVQYLLAAPTEDGGQYSMFLNLVKKYGLIPKDLYGDLPYSTTASRKWNSLLTTKLREFAETLRTALKERSADDSIIVTLREQMQREIFRLMSLFMDIPPVQPNEQFTWEYVDKDKKIHTIKSTPLEFASKYAKLDPSTPVSLINDPRHPYGKLIKIDRLGNVLGGDAVIYLNVDNETLSKLVVKRLQNNKAVFFGSHTPKFMDKKTGVMDIELWNYPAIGYNLPQQKASRIRYHESLMTHAMLITGCHVDETSKLPLRYRVEVSWGKDSGKDGLYVMTQKYFEEYCFQIVVDINELPKELASKFTSGKEEPIVLPIWDPMGALA | soluble
MGSDKIHHHHHHMKDEVLIYSWVGEENIGDELILKSIVRMIEKIDDRLKVNVMGTKPKVINKIHNHLGLNRISTYINWTLKSILRAILKHNIFKAILNILCSNKLIIASGGALSDWNPSSTKTIFFLIDLFYFMNRPICMMGVGAGPILHEKSKKRFYNKLKKLEVITVRDEESYELLKSIGLKNVILTSDSVFNICSIIQNKYPEKDVTEKKISFVLAKLFKDNTKELKEYKEEIIKTINRLKKENWKIKLVPFHYSEDIGFLKSINQKCNVEILNSHDMYDTIGELNNENIIVGMRYHSVIMSLVLGKKVIPLIYHPKVYSVARRFEILDIAENVGNGGNWIGSNISSERLLKNIEKLYKSDENTAKNRGKVLRIVKQNDLNNEILARFLRHSNVLEVVSYNVQRH | not soluble
MGSDKIHHHHHHMNSLQSTHPPKLNSCDRQVILDYFENAWQLEDMLMKTLVEEDTFYLNPDPLRNPLIFYLGHSAVFYINKLISVGLLEKRINPDYEILFEIGVDPEVPEELNQAIAHLEWPQVAQTWEYRKQAYTVIAEVIKTTPITLPIHPTHPLWALMMGIEHQRIHIETSSMLIRQLPIERVKRPQNWQYAPFNGYTAQNEMIQVIGGVVKLGKAFNDPTYGWDIDYGDRTVEVEPFLASKYLITNADFSYFVKAGGYENQAYWDEESWHWKTENNIQYPKFWIHQNGIYKYRAMFDEIDLPLDWPVEVNHYEAMAYCCWQGKDTRLMSEAEYHLATYGSGLVEDVDNYNVNLKFGSPSPVGMLETAKSYSGLYDLRGNVWEHLSDNLNPLPGYKPHFLYEDNSAIFFDNKHQMMLGGCWITNGTEALKYYRNWFRPNFYQHAGFRIVQDMKH | not soluble
MAHHHHHHMALLVYLNNKQTHSFIAVRKSSSLLFSPGNFKAIYQRIYEHLNDQYEERGQLEAGEEILTVKPNVFAQNGVIDFDGVRKMWTSHIVPQLRRCVTGDHLANTTDNSVVSIEESAVFCDIGSGVGNVCLQLLAETNCRKVVGVEVIPSRHRAATTAFAKALSYFPENFSGKQAIFIQDDFVNCARRMVEENVNVIFTHSWMFDDELMKRLTELVVSLPALLCVVTSRPLHENLLVGSQMKLVSYVHLTADWNDEAPFFIYRKIT | not soluble
GPGSWIVSRGLNYSDPMNSVVARWVQHSRVRRLTTPISCFGLFIFTATCMQLPYDFRLLREASAGIDRQTALLKKSMDERYLAYREGKIAKEQLEAKEAEAFAKSMKVQ | soluble
MRVGQHTLQFANPPVIVATASVVGPKEGEGPLGDTFDMVIDDSYFGEETWEKAERKMLEEAVKMVIAKAQLKPQDIDFLLAGDLLNQTISANYAARSLGIPFLGLYGACSTMYEGMALAAMLIDGGFAHHVVAACSSHYDTAERQYRFPTEQGIQRPPTAQWTVTGAGAVLMAPVGNGPRITHATIGRVLDVGIKDPNDMGSAMAPAAVDTIVRHFQDTGRGPIDYDLIITGDLGRVGHEIATKLLGEKKYDVSKNYSDCGILIYDHERQDTHAGGSGCACSAVVFAGHLMGKLNEGRYKRILGVGTGALLSTTATQQGESIPGIGHGVVIEGLEHHHHHH | not soluble
MSADAYHPPTTSPRLETLDVLSIGMSLDVFRQGQVWKALQEQNAAQAEALHVGSILPMDPKKYPTSADDKDMAYEKRQADALELGLKNFLEKWPIPTVTVVRGWDPSTPNLRFTPEETRESLSVKVNDLRVPAGLHWHRIANLQDGIICNDTPEGVLEALFSLFERNPDLPAVLVYANEGISMAGALSSRDVTLKSLGAVSGPRIPGTLTDAMVALIVGRPERVDWLRQFAPYTKVNENRIDPEFRGWGWRKPPVEFRPTPFIPQPWTERALEQWDALPVLARLHRPVSVPLTHPDTGERLKREALTAQLAAAWKTASAGLRPAPARLFYDGGLNATPLAELTPALGAAQSSLDLLDSRESYDLTQRLGDTGAASPFVGITLATMASYLNGDSSMVMPLRRKDQATLIGISSPTPGKKPVHDPFGVDLLPQTASGDGPPPSADPVAPASRLTTRLPPGEDYALEEFLSSLKPSTDWQDDL | not soluble
MKKILFICLGNICRSPMAEFIMKDLVKKANLEKEFFINSAGTSGEHDGEGMHYGTKNKLAQLNIEHKNFTSKKLTQKLCDESDFLITMDNSNFKNVLKNFTNTQNKVLKITDFSPSLNYDEVPDPWYSGNFDETYKILSLACKNLLVFLSKHHHHH | soluble
TRAFKWTTNFNISFNKNKVLALSENQTALLTAAQFDQNYNGQSSYIAKVGLPMGLMYGYVYEGTYKYDDFNKSGNSYSLKPGVPHYSTETNTQPGMPKYADLNGDGVVDSNDRTIIGRGLPIHTGGFTNNFEYKGIDLSIFFQWSYGNDIMNANRLFFESSNNRSRELNQFASYANRWTPENPTSDIPAATNSSSNRVISSRIIEDGSYLRLKNVTVGYTFPAKLVKKWKIDKARVYVAAQNLWTCTGYSGYDPEVSVRNSALTPGLDYSSYPRAYSISFGVSLGF | not soluble
RGKGKDIVMNPLSFGEFVKVARPDIYSKLPRIKRITKVKECSKLRPWREELYDLFILYLKSGGFPRAVKDILEGESIAELHEPTWNSIQKFYGPL | not soluble
MQRVAISTLGCKINQFESAAMTESLGREGFRVVPFDEDADIYVINTCTVTAKTDAESRRLIRRALRRNPAARVVVTGCYAQVAPDAVKDLPGVALVVGNSEKRSIGELLRDAAPAEKVMVSDISRERTAEGLRLESFAEHTRAFLQVQNGCDAFCSYCIVPYARGRSRSVSFSEALAGIRNFAAQGFREVVLTGIHLGAYGLDLAPPTNLLALLEASEAEKAVPRLRVGSVEPNELTDALVDFLARSETVCPHLHIPLQSGDDRVLERMGRRYTAAFFRERVERLVAVVPDIFIGCDVIAGFPGETDEEFQNTVRLIEELPVASLHVFPYSRREGTAAARMEGQVDGKVIRGRAEILREVGERKRRSFCERFVGRELAVLMQNRGRDGEAVGLSRNYLPVRVPGYAGEMNAEATVMVTEVTPDGVGGIIRGLEHHHHHH | soluble
SETQEGVSKQSIRERIWDYMESHDIADFPRPVHHRIPNFKGAAQAAGHLPHLQAFHVARTIKVNPDAPQRNARFLVLESKKTLLVPTPRLRTGLFNKITPPPGATKDILRKCATSQGVRNFSVPVGLDSSVLVDLVVVGSVAVSEKGKLETGCLDVPEGYPGHSPLACVHAESLTSAPVPLTLQAFCCSVSPHGRLSVIGMGGIESLSHLNQHSVERPLPGLCGGPLMVVVIPH | not soluble
SMRYRQITIPRGKDGFGFTICCDSPVRVQAVDSGGPAERAGLQQLDTVLQLNERPVEHWKCVELAHEIRSCPSEIILLVWRMVPQVKPGPD | soluble
